Target: Mis16 (S. pombe), full length, affinity tag removed (S. pombe, UniProt O94244 1-430)
Experiment: ITC

Sequence of Mis16 (S. pombe), full length, affinity tag removed (O94244 whole entry): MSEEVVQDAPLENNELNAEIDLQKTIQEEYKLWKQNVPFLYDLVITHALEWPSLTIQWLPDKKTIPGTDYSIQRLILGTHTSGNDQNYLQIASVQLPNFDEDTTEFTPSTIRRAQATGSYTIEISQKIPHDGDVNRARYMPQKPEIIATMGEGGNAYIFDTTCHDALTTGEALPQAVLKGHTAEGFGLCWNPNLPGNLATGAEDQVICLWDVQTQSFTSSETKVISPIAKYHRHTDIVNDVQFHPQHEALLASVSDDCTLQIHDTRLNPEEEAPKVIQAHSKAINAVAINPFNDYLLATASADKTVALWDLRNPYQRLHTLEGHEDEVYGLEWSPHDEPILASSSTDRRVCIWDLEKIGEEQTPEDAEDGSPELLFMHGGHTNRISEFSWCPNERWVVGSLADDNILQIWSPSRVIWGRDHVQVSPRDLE

Kd: > 1000 nM
B1: Mis19 C-terminal peptide (residues 97–112) R105A (peptide)
peptide: LHNRVFLRANVRAVKM

Source: article PMC6677171 (2019)
